System: negative control oligo (shares 7/17 bp with the consensus motif)
Test: Fluorescence polarization DNA binding assay, negative control oligo
Conditions: same conditions
Experimental: The fragment of Human ZNF410 (NP_001229855.1) comprising of five zinc finger domains ZF1-5 (residues 217-366) was cloned into pGEX-6P-1 vector with a GST fusion tag (pXC2180). The plasmid was transformed into Escherichia coli strain BL21-Codon-plus(DE3)-RIL (Stratagene). Bacteria was grown in LB broth in a shaker at 37° C. until reaching the log phase (A600 nm between 0.4 and 0.5), the shaker temperature was then set to 16° C. and 25 μM ZnCl2 was added to the cell culture. When the shaker temperature reached 16° C. and A600 nm reached ˜0.8, the protein expression was induced by the addition of 0.2 mM isopropyl-3-D-thiogalactopyranoside with subsequent growth for 20 hours at 16° C. […]
Fluorescence polarization (FP) method was used to measure the binding affinity using a Synergy™ 4 Microplate Reader (BioTek). […]
To further gain insight into the molecular basis of how the ZNF410 tandem ZF domain recognizes its targeting DNA sequence, crystallization of the ZNF410-DNA complex was performed. The binding affinity of the ZNF410 ZF domain (ZF1-5) with the consensus motif was quantified by fluorescence polarization using purified GST fusion protein (Patel, et al. (2016) Methods Enzymol., 573:387-401). […]

B1: ZF1-5: fragment of human ZNF410 comprising five zinc finger domains ZF1-5 (residues 217-366); dominant-negative when overexpressed (protein)
chain: KKLKCTVEGCDRTFVWPAHFKYHLKTHRNDRSFICPAEGCGKSFYVLQRLKVHMRTHNGEKPFMCHESGCGKQFTTAGNLKNHRRIHTGEKPFLCEAQGCGRSFAEYSSLRKHLVVHSGEKPHQCQVCGKTFSQSGSRNVHMRKHHLQLG
modifications: left off: small tags and cut ends
notes: fragment of human ZNF410 comprising five zinc finger domains ZF1-5 (residues 217-366); dominant-negative when overexpressed
binding to the negative control oligo: no measurable binding

— patent publication US20230272390A1, “COMPOSITIONS AND METHODS FOR HEMOGLOBIN PRODUCTION” (THE CHILDREN'S HOSPITAL OF PHILADELPHIA, priority 2020, published 2023)
